Measured values as given in paper PMC8232673, “Hybrid-Type SELEX for the Selection of Artificial Nucleic Acid Aptamers Exhibiting Cell Internalization Activity”.

Key:
[1] = target: TROP2 FcHis (human TROP2 fused to IgG1 FcHis) (human, UniProt P09758 27-274+P01857:100-328, internal_change); experiment: capillary electrophoresis; 10 nM DNA, 4-fold protein; 20 mM Tris-HCl pH 7.4, 10 mM NaCl, 1 mM MgCl2, 0.05% Tween 20; 10 nM aptamer, 37 °C 30 min, then held at 15 °C; CE running buffer 100 mM sodium borate pH 8.35; settings: protein: commercial; IgG1 Fc-His fusion; chain copies: 2; label: 5' FAM
Chain of TROP2 FcHis (human TROP2 fused to IgG1 FcHis) (P09758 other isoform, or with tags, fused parts or gaps): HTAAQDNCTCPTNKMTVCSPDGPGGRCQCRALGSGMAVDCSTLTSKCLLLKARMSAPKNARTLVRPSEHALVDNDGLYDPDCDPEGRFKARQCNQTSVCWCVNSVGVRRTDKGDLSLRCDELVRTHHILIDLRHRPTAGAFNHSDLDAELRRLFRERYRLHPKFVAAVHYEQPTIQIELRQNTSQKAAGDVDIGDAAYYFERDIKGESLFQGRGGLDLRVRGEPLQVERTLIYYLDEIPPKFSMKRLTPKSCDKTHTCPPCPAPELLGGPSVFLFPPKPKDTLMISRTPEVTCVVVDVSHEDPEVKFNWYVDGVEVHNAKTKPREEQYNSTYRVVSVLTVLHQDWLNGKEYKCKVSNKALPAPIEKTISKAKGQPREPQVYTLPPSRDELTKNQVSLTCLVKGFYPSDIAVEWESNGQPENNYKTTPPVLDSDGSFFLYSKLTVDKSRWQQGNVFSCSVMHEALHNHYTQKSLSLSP

[2] = target: FcHis (human IgG1 Fc-His, counter-target for specificity) (human, UniProt P01857 100-328); experiment: as above; settings: protein: commercial; tags: His; chain copies: 2; label: 5' FAM
IgG1 Fc = IgG1 Fc (Homo sapiens (Human), UniProt P01857 104-328, glycosylated); experiment: capillary electrophoresis; 20 mM Tris pH 7.4, 10 mM NaCl, 1 mM MgCl2, 0.05% Tween 20, 37 C; settings: tags: His; chain copies: 2; label: 5'-FAM

Binder	binding result [1]	binding result [2]	Kd (IgG1 Fc) [nM]
ssDNA_neg (ssDNA) DNA: TCGCCTTGCCGGATCGCAGACTTCCCCCCACTCCACTTCTTACTCCTTTCTGGTCCGTGAGCCTGACACC	no binding	no binding	
Tac-A5 (ssDNA, every T at positions 21-70 is 5-[(3-indolyl)propionamide-N-allyl]-dU (Utrp); T in 5' primer region (1-20) natural) DNA: TCGCCTTGCCGGATCGCAGATCTGTTCCGTGTTCGTTCCTTTCCTTGTTGTGGTCCGTGAGCCTGACACC			> 1000
